In patent publication EP4722254A1:

Target: Recombinant Human-FGFR2-His protein (human) (UniProt P21802)
Assay: ELISA, Human-FGFR2-His coated, anti-human Fc-HRP detection

Sequence of Recombinant Human-FGFR2-His protein (human) (P21802 other isoform, or with tags, fused parts or gaps limits assumed): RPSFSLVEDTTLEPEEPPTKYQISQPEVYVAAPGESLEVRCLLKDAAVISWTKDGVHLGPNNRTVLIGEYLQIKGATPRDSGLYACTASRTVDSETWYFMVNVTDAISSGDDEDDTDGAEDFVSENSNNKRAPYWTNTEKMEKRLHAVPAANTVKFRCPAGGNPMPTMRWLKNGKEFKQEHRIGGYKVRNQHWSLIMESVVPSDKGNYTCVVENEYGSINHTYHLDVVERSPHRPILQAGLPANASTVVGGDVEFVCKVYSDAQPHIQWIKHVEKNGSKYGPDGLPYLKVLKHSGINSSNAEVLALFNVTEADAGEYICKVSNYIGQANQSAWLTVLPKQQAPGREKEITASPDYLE

EC50: 0.624 nM
B1: anti-FGFR2/PD-1 bispecific antibody c (bispecific antibody, part only; not given: anti-PD-1 constant regions, part only)
heavy, part: EVKLVESGGGLVQPGGSLRLSCAASGFAFSSYDMSWVRQAPGKRLEWVATISGGGRYTYYPDTVKGRFTISRDNAKNSHYLQMNSLRAEDTAVYFCASPYGGYFDVWGQGTLVTVSSGGGGSGGGGSGGGGSQVQLVQSGAEVKKPGSSVKVSCKASGYTFTSYWMHWVRQAPGQGLEWMGAIYPGNSDTDYSGKFKGRVTITADESTSTAYMELSSLRSEDTAVYYCSKFDYWGQGTLVTVSSGGGGSGGGGSGGGGSGGGGSEIVLTQSPATLSLSPGERATLSCRASSSVNYMYWYQQKPGQAPRPWIYLTSNRATGVPARFSGSGSGTDYTLTISSLEPEDFAVYYCQQWSSNPYTFGQGTKLEIKRTV
light, part: EIVLTQSPATLSLSPGERATLSCRASQSISNFLHWYQQKPGQAPRLLIKYASQSISGIPARFSGSGSGTDFTLTISSLEPEDFAVYFCQQSNSWPHTFGQGTKVEIK
